Substitutions are numbered along the chain they refer to. Like-named read-outs stand apart in the source and are kept apart here.

Our source for the Kd values is patent US20240117018A1 (UNIVERSITY OF MARYLAND BALTIMORE, published 2024).

Experiment [1] has as its target monomeric HIV-1 Ba-L gp120 (HIV-1 Ba-L).
The target is the same in experiment [2]. This is another data set of the same source.
The target is the same in experiment [3]. This is another data set of the same source.

B1: N49P7 (antibody)
heavy: not shown
light: QSALTQPRSVSASPGQSVTISCTGTHNLVSWCQHQPGRAPKLLIYDFNKRPSGVPDRFSGSGSGGTASLTITGLQDDDDAEYFCWAYEAFGGGTKLTVLGQPKAAPSVTLFPPSSEELQANKATLVCLISDFYPGAVTVAWKADSSPVKAGVETTTPSKQSNNKYAASSYLSLTPEQWKSHRSYSCQVTHEGSTVEKTVAPTECS
As a reminder, the Kd is the equilibrium constant for the complex coming apart. Low readings indicate higher affinity, high ones lower affinity. In turn, B1 came in with a Kd in experiment [1] of 0.86 nM. That is a sub-nanomolar value.

B2: N49P7.1 (antibody)
heavy: not shown
light: B1 light with G100R
As to B2, the Kd in experiment [2] was determined as 1.14 nM.

B3: N49P11 (antibody, V domains shown)
V domain 1: SAELVQSGAVVKKPGTSVKVSCQAYGYTFTDYLIHWLRQAPGQGLEWMGWMNPVYGQVNYAQNFQGRVSMTRDIYRETAFLEVRDLKTDDTGTYYCVRDTGDGSRRHFDSINWFLDLWGRGTWIRVAP
V domain 2: QCVLTQPRSVSGSPGQSVTISCTGTHNYVSWCQHHPGNAPKLLLYDFDKRPSGISDRFSGSRSGNTASLTISGLQPEDEADYFCWAFEAFGGGTKVLVLR
With B3, in experiment [3], the equilibrium dissociation constant (Kd) came out at 15.6 nM.
